Measurements reported in US20250026842A1.

How the values were obtained:
[1] = target: human 4-1BB on the surface of HEK293-Hu4-1BB cells (human) (UniProt Q07011); assay: cell-based or functional assay
[2] = target: human 4-1BB on the surface of HEK293-Hu4-1BB cells (human) (UniProt Q07011); assay: FACS on HEK293 cells highly expressing human 4-1BB

Chain of human 4-1BB on the surface of HEK293-Hu4-1BB cells (human) (Q07011 24-255): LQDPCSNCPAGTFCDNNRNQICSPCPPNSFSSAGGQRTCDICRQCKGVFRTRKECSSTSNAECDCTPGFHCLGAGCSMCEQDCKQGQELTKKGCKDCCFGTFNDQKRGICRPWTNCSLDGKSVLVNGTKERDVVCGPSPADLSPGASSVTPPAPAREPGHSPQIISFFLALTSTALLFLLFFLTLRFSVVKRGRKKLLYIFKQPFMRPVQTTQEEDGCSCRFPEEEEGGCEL

Which Emax, 4-1BB/NF-κB luciferase reporter, FcγRIIb cross-linking (relative to antibody-free group) [1] does the source give for isotype IgG1 antibody here?
Its Emax, 4-1BB/NF-κB luciferase reporter, FcγRIIb cross-linking (relative to antibody-free group) is 1.12.

And the Emax, 4-1BB/NF-κB luciferase reporter, no FcγRIIb cross-linking (relative to antibody-free group) [1]?
Its Emax, 4-1BB/NF-κB luciferase reporter, no FcγRIIb cross-linking (relative to antibody-free group) is 1.1.

And the Maximal fluorescence value [2]?
Its Maximal fluorescence value is 67.
